The values that follow are results of earlier work, collected in paper PMC6535718 (Journal of the American Chemical Society, 2019).

The term Kd denotes the concentration at which binding is half-saturated.

For the data set, the target named is BfrB. The note with it: read-out: Kd of Bfd binding to BfrB; complex in solution.

B1: Bfd: bacterioferritin-associated ferredoxin, cognate partner of BfrB in P. aeruginosa (protein, UniProt Q9HY80 1-73, looked up)
Bacterioferritin-associated …: MYVCLCQGVTDNQIRDAIYEGCCSYREVREATGVGTQCGKCACLAKQVVRETLNDLQSAQPVPAFGTTAFVAA
Consider B1, for which the Kd is around 3 µM.
